Measurements published in patent US20140363844.

Columns and labels:
[1] = biological target: T1, Dianthus Precursor A[14,33]
T1 chain: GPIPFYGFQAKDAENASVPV

[2] = biological target: T2, Dianthus Precursor B[14,32]
T2 chain: GYKDCCVQAKDLENAAVPV

Presegetalin A1[14,19] = biological target: T3, Presegetalin A1[14,19]
T3 chain: GVPVWA

Presegetalin A1[14,20] = biological target: T4, Presegetalin A1[14,20]
T4 chain: GVPVWAF

Presegetalin A1[14,24] = biological target: T5, Presegetalin A1[14,24]
T5 chain: GVPVWAFQAKD

Presegetalin A1[14,28] = biological target: T6, Presegetalin A1[14,28]
T6 chain: GVPVWAFQAKDVENA

Presegetalin A1[14,30] = biological target: T7, Presegetalin A1[14,30]
T7 chain: GVPVWAFQAKDVENAPV

[3] = biological target: T8, Presegetalin A1[14,32] P16p W18A
T8 chain: GVPVAAFQAKDVENASAPV

[4] = biological target: T9, Presegetalin A1[14,32] P16p W18a
T9 chain: GVPVAAFQAKDVENASAPV

[5] = biological target: T10, Presegetalin A1[14,32] ins 16A17
T10 chain: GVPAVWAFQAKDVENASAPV

[6] = biological target: T11, Presegetalin A1[14,32]A19V
T11 chain: GVPVWVFQAKDVENASAPV

[7] = biological target: T12, Presegetalin A1[14,32]A19a
T12 chain: GVPVWAFQAKDVENASAPV

[8] = biological target: T13, Presegetalin A1[14,32]A28V
T13 chain: GVPVWAFQAKDVENVSAPV

[9] = biological target: T14, Presegetalin A1[14,32]E26A
T14 chain: GVPVWAFQAKDVANASAPV

[10] = biological target: T15, Presegetalin A1[14,32]F20A
T15 chain: GVPVWAAQAKDVENASAPV

[11] = biological target: T16, Presegetalin A1[14,32]G14A
T16 chain: AVPVWAFQAKDVENASAPV

Presegetalin A1[14,32] = biological target: T17, Presegetalin A1[14,32]
T17 chain: GVPVWAFQAKDVENASAPV

[12] = biological target: T18, Presegetalin A1[14,32]K23A
T18 chain: GVPVWAFQAADVENASAPV

[13] = biological target: T19, Presegetalin A1[14,32]N27A
T19 chain: GVPVWAFQAKDVEAASAPV

[14] = biological target: T20, Presegetalin A1[14,32]P16A
T20 chain: GVAVWAFQAKDVENASAPV

[15] = biological target: T21, Presegetalin A1[14,32]P16p
T21 chain: GVPVWAFQAKDVENASAPV

[16] = biological target: T22, Presegetalin A1[14,32]P31A
T22 chain: GVPVWAFQAKDVENASAAV

[17] = biological target: T23, Presegetalin A1[14,32]Q21A
T23 chain: GVPVWAFAAKDVENASAPV

[18] = biological target: T24, Presegetalin A1[14,32]S29A
T24 chain: GVPVWAFQAKDVENAAAPV

[19] = biological target: T25, Presegetalin A1[14,32]V15v
T25 chain: GVPVWAFQAKDVENASAPV

[20] = biological target: T26, Presegetalin A1[14,32]V17A
T26 chain: GVPAWAFQAKDVENASAPV

[21] = biological target: T27, Presegetalin A1[14,32]W18A
T27 chain: GVPVAAFQAKDVENASAPV

[22] = biological target: T28, Presegetalin A1[14,32]W18w
T28 chain: GVPVWAFQAKDVENASAPV

Presegetalin B1[14,31] = biological target: T29, Presegetalin B1[14,31]
T29 chain: GVAWAFQAKDVENASAPV

Presegetalin D1[14,31] = biological target: T30, Presegetalin D1[14,31]
T30 chain: GLSFAFPAKDAENASSPV

[23] = biological target: T31, Presegetalin D1[14,31]P20Q
T31 chain: GLSFAFQAKDAENASSPV

Presegetalin G1[14,31] = biological target: T32, Presegetalin G1[14,31]
T32 chain: GVKYAFQPKDSENASAPV

Presegetalin H1[14,31] = biological target: T33, Presegetalin H1[14,31]
T33 chain: GYRFSFQAKDAENASAPV

Presegetalin J1[14,36] = biological target: T34, Presegetalin J1[14,36]
T34 chain: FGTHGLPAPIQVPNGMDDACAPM

Presegetalin L1[14,32] = biological target: T35, Presegetalin L1[14,32]
T35 chain: GLPGWPFQAKDVENASAPV

B1: Saponaria vaccaria PCY1 (recombinant, N-terminal His6-tag, expressed in E. coli from pCB008) (protein)
chain: MATSGFSKPLHYPPVRRDETVVDDYFGVKVADPYRWLEDPNSEETKEFVDNQEKLANSVLEECELIDKFKQKIIDFVNFPRCGVPFRRANKYFHFYNSGLQAQNVFQMQDDLDGKPEVLYDPNLREGGRSGLSLYSVSEDAKYFAFGIHSGLTEWVTIKILKTEDRSYLPDTLEWVKFSPAIWTHDNKGFFYCPYPPLKEGEDHMTRSAVNQEARYHFLGTDQSEDILLWRDLENPAHHLKCQITDDGKYFLLYILDGCDDANKVYCLDLTKLPNGLESFRGREDSAPFMKLIDSFDASYTAIANDGSVFTFQTNKDAPRKKLVRVDLNNPSVWTDLVPESKKDLLESAHAVNENQLILRYLSDVKHVLEIRDLESGALQHRLPIDIGSVDGITARRRDSVVFFKFTSILTPGIVYQCDLKNDPTQLKIFRESVVPDFDRSEFEVKQVFVPSKDGTKIPIFIAARKGISLDGSHPCEMHGYGGFGINMMPTFSASRIVFLKHLGGVFCLANIRGGGEYGEEWHKAGFRDKKQNVFDDFISAAEYLISSGYTKARRVAIEGGSNGGLLVAACINQRPDLFGCAEANCGVMDMLRFHKFTLGYLWTGDYGCSDKEEEFKWLIKYSPIHNVRRPWEQPGNEETQYPATMILTADHDDRVVPLHSFKLLATMQHVLCTSLEDSPQKNPIIARIQRKAAHYGRATMTQIAEVADRYGFMAKALEAPWID
CP (cyclic peptide product detected by LC/MS) [1]: +
LP (linear peptide product detected by LC/MS) [1]: -
cyclic peptide product (LC/MS, MS/MS) [1]: there was a small amount of cyclic peptide production from No. 43
CP (cyclic peptide product detected by LC/MS) [2]: -
LP (linear peptide product detected by LC/MS) [2]: -
CP (cyclic peptide product detected by LC/MS) (Presegetalin A1[14,19]): -
CP (cyclic peptide product detected by LC/MS) (Presegetalin A1[14,20]): -
LP (linear peptide product detected by LC/MS) (Presegetalin A1[14,20]): -
CP (cyclic peptide product detected by LC/MS) (Presegetalin A1[14,24]): -
LP (linear peptide product detected by LC/MS) (Presegetalin A1[14,24]): +
linear peptide formation (LC/MS, MS/MS) (Presegetalin A1[14,24]): showed linear peptide formation almost equivalent to the linear peptide formed from the WT substrate (No. 1)
CP (cyclic peptide product detected by LC/MS) (Presegetalin A1[14,28]): -
LP (linear peptide product detected by LC/MS) (Presegetalin A1[14,28]): +
linear peptide formation (LC/MS, MS/MS) (Presegetalin A1[14,28]): showed linear peptide formation almost equivalent to the linear peptide formed from the WT substrate (No. 1)
CP (cyclic peptide product detected by LC/MS) (Presegetalin A1[14,30]): -
LP (linear peptide product detected by LC/MS) (Presegetalin A1[14,30]): +
linear peptide formation (LC/MS, MS/MS) (Presegetalin A1[14,30]): showed linear peptide formation almost equivalent to the linear peptide formed from the WT substrate (No. 1)
CP (cyclic peptide product detected by LC/MS) [3]: +
LP (linear peptide product detected by LC/MS) [3]: -
CP (cyclic peptide product detected by LC/MS) [4]: +
LP (linear peptide product detected by LC/MS) [4]: -
CP (cyclic peptide product detected by LC/MS) [5]: +
LP (linear peptide product detected by LC/MS) [5]: +
CP (cyclic peptide product detected by LC/MS) [6]: -
LP (linear peptide product detected by LC/MS) [6]: -
CP (cyclic peptide product detected by LC/MS) [7]: -
LP (linear peptide product detected by LC/MS) [7]: -
CP (cyclic peptide product detected by LC/MS) [8]: +
LP (linear peptide product detected by LC/MS) [8]: +
linear segetalin A production relative to WT substrate [8]: showed a relative increase in production of linear segetalin A
segetalin A production relative to WT substrate [8]: positions were found to be sensitive to substitution ... position 20, 21, 23, 24, 27, 28 and 31
CP (cyclic peptide product detected by LC/MS) [9]: +
LP (linear peptide product detected by LC/MS) [9]: +
linear segetalin A production relative to WT substrate [9]: showed a relative increase in production of linear segetalin A
segetalin A production relative to WT substrate [9]: substitutions at positions 25, 26 and 29 (No. 18, 19 and 22) yielded relatively higher amounts of segetalin A than that produced from WT substrate
CP (cyclic peptide product detected by LC/MS) [10]: +
LP (linear peptide product detected by LC/MS) [10]: +
linear segetalin A production relative to WT substrate [10]: a relative increase in production of linear segetalin A from all mutant substrates except with No. 13 and No. 14
segetalin A production relative to WT substrate [10]: segetalin A production was found to be ≧42 times lower than the WT substrate
CP (cyclic peptide product detected by LC/MS) [11]: +
LP (linear peptide product detected by LC/MS) [11]: +
linear peptide product in LC/MS [11]: the highest amount of linear peptide product was detected with No. 7
relative intensity of cyclic peptide product in LC/MS [11]: makes less product (cyclic peptide) with the substitution of glycine to alanine at the first position in segetalin A (No. 7) than with No. 8 to 11
CP (cyclic peptide product detected by LC/MS) (Presegetalin A1[14,32]): +
LP (linear peptide product detected by LC/MS) (Presegetalin A1[14,32]): +
PCY1 activity (total amount of segetalin A produced) (Presegetalin A1[14,32]): 3 nmol/mg of protein/min
formation of segetalin A and linear segetalin A (LC/MS) (Presegetalin A1[14,32]): purified PCY1 showed the formation of segetalin A and linear segetalin A in the presence of presegetalin A1[14,32]
CP (cyclic peptide product detected by LC/MS) [12]: +
LP (linear peptide product detected by LC/MS) [12]: +
linear segetalin A production relative to WT substrate [12]: showed a relative increase in production of linear segetalin A
segetalin A production relative to WT substrate [12]: positions were found to be sensitive to substitution ... position 20, 21, 23, 24, 27, 28 and 31
CP (cyclic peptide product detected by LC/MS) [13]: +
LP (linear peptide product detected by LC/MS) [13]: +
linear segetalin A production relative to WT substrate [13]: showed a relative increase in production of linear segetalin A
segetalin A production relative to WT substrate [13]: positions were found to be sensitive to substitution ... position 20, 21, 23, 24, 27, 28 and 31
CP (cyclic peptide product detected by LC/MS) [14]: +
LP (linear peptide product detected by LC/MS) [14]: +
CP (cyclic peptide product detected by LC/MS) [15]: +
LP (linear peptide product detected by LC/MS) [15]: -
CP (cyclic peptide product detected by LC/MS) [16]: +
LP (linear peptide product detected by LC/MS) [16]: +
linear segetalin A production relative to WT substrate [16]: showed a relative increase in production of linear segetalin A
segetalin A production relative to WT substrate [16]: the P31A mutant (No. 24 in Table 3) was found to yield […]11 times less segetalin A than that produced from the WT substrate
CP (cyclic peptide product detected by LC/MS) [17]: +
LP (linear peptide product detected by LC/MS) [17]: +
linear segetalin A production relative to WT substrate [17]: a relative increase in production of linear segetalin A from all mutant substrates except with No. 13 and No. 14
segetalin A production relative to WT substrate [17]: positions were found to be sensitive to substitution ... position 20, 21, 23, 24, 27, 28 and 31
CP (cyclic peptide product detected by LC/MS) [18]: +
LP (linear peptide product detected by LC/MS) [18]: +
linear segetalin A production relative to WT substrate [18]: showed a relative increase in production of linear segetalin A
segetalin A production relative to WT substrate [18]: yielded a 30% increase in segetalin A production relative to wild type presegetalin A1[14,32]
CP (cyclic peptide product detected by LC/MS) [19]: +
LP (linear peptide product detected by LC/MS) [19]: +
CP (cyclic peptide product detected by LC/MS) [20]: +
LP (linear peptide product detected by LC/MS) [20]: +
CP (cyclic peptide product detected by LC/MS) [21]: +
LP (linear peptide product detected by LC/MS) [21]: -
CP (cyclic peptide product detected by LC/MS) [22]: +
LP (linear peptide product detected by LC/MS) [22]: +
conversion to cyclic peptide (LC/MS) [22]: the W18w mutant of presegetalin A1 was apparently relatively weakly converted to cyclic peptide
CP (cyclic peptide product detected by LC/MS) (Presegetalin B1[14,31]): +
LP (linear peptide product detected by LC/MS) (Presegetalin B1[14,31]): -
CP (cyclic peptide product detected by LC/MS) (Presegetalin D1[14,31]): +
LP (linear peptide product detected by LC/MS) (Presegetalin D1[14,31]): +
CP (cyclic peptide product detected by LC/MS) [23]: +
LP (linear peptide product detected by LC/MS) [23]: -
cyclic peptide product (LC/MS) [23]: resulted in a 5 amino acid cyclic peptide product (cyclo(GLSFA); SEQ ID NO: 77), and the substituted glutamine was not part of the final cyclic peptide
CP (cyclic peptide product detected by LC/MS) (Presegetalin G1[14,31]): +
LP (linear peptide product detected by LC/MS) (Presegetalin G1[14,31]): -
CP (cyclic peptide product detected by LC/MS) (Presegetalin H1[14,31]): +
LP (linear peptide product detected by LC/MS) (Presegetalin H1[14,31]): -
CP (cyclic peptide product detected by LC/MS) (Presegetalin J1[14,36]): +
LP (linear peptide product detected by LC/MS) (Presegetalin J1[14,36]): -
CP (cyclic peptide product detected by LC/MS) (Presegetalin L1[14,32]): +
LP (linear peptide product detected by LC/MS) (Presegetalin L1[14,32]): -
